The target in this experiment is GAL4 DNA-binding domain fusion of the neuroglian^167 cytoplasmic domain with Y1234F (Drosophila). As to the kind of experiment: two-hybrid.

The substance “GAL4 activation domain–Drosophila ankyrin fusion protein (from UniProt Q24241 1-1549) (natural protein)” registered a reduction of binding against wild type (β-galactosidase) of 50%.

The record behind these values is paper PMC2133023.
